Test system: Bacillus subtilis
Assay: cleaved RNA product abundance (RNA/gDNA barcode ratio) relative to median wild-type variant (ratio to wild type); higher = more accumulation of the downstream cleavage product
Details: cleavage site: cggR-gapA (positions -7 to +36 mutated)
In short: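 Cleaved product abundance for each construct is its RNA-to-gDNA barcode ratio, scaled to the median construct carrying the unmutated site. Cleaved RNA was isolated on a gel, reverse transcribed and barcode-sequenced, with genomic DNA barcodes sequenced alongside and UMIs collapsed. The reporters were truncated aprE or tetM mRNAs with barcoded, mutagenized RNase Y cleavage-site windows integrated into the B. subtilis chromosome, and cultures grew in LB at 37°C from OD600 0.0003 to 0.3.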

[1] = experiment (reporter, strain, medium): exp 2b: truncated aprE reporter, strain BJT200
[2] = experiment (reporter, strain, medium): exp 4a: truncated aprE reporter, strain BJT201 with 2% xylose (RNase J1 expressed)
[3] = experiment (reporter, strain, medium): exp 6: tetM reporter, strain 168

Sequence	cleaved RNA product abundance [1]	cleaved RNA product abundance [2]	cleaved RNA product abundance [3]
ACAGACGAAGGAGCCGCAAAGAAGTTATTAAGGGATGAATAATCCCTCAATATAAAGATCTCTCACTTATTTAAA	0.666	0.627	–
ACAGACGAAGGAGCCGCAAAGAAGTTATTAAGGGATGAATAATCCCTCAATATAAATAACTCTCACTTATTTAAA	0.903	0.849	0.706
ACAGACGAAGGAGCCGCAAAGAAGTTATTAAGGGATGAATAATCCCTCAATATAAATACATCTCACTTATTTAAA	–	0.712	–
ACAGACGAAGGAGCCGCAAAGAAGTTATTAAGGGATGAATAATCCCTCAATATAAATACCTCTCACTTATTTAAA	0.69	0.56	0.593
ACAGACGAAGGAGCCGCAAAGAAGTTATTAAGGGATGAATAATCCCTCAATATAAATAGCTCTCACTTATTTAAA	0.637	0.616	0.688
ACAGACGAAGGAGCCGCAAAGAAGTTATTAAGGGATGAATAATCCCTCAATATAAATATATCTCACTTATTTAAA	0.976	1.02	–
ACAGACGAAGGAGCCGCAAAGAAGTTATTAAGGGATGAATAATCCCTCAATATAAATATCACTCACTTATTTAAA	–	0.917	–
ACAGACGAAGGAGCCGCAAAGAAGTTATTAAGGGATGAATAATCCCTCAATATAAATATCTCTACTTATTTAAAG	1.09	–	–
ACAGACGAAGGAGCCGCAAAGAAGTTATTAAGGGATGAATAATCCCTCAATATAAATATCTCTCACTATTTAAAG	1.28	1.23	–
ACAGACGAAGGAGCCGCAAAGAAGTTATTAAGGGATGAATAATCCCTCAATATAAATATCTCTCACTTATTAAAG	0.94	0.971	–
ACAGACGAAGGAGCCGCAAAGAAGTTATTAAGGGATGAATAATCCCTCAATATAAATATCTCTCACTTATTTAAA	–	–	1.06
ACAGACGAAGGAGCCGCAAAGAAGTTATTAAGGGATGAATAATCCCTCAATATAAATATCTCTCACTTATTTAAG	0.868	0.646	–
ACAGACGAAGGAGCCGCAAAGAAGTTATTAAGGGATGAATAATCCCTCAATATAAATATCTCTCACTTTTTAAAG	–	0.879	–
ACAGACGAAGGAGCCGCAAAGAAGTTATTAAGGGATGAATAATCCCTCAATATAAATATCTCTCATTATTTAAAG	1.06	1.05	–
ACAGACGAAGGAGCCGCAAAGAAGTTATTAAGGGATGAATAATCCCTCAATATAAATATCTCTCCTTATTTAAAG	0.315	–	–
ACAGACGAAGGAGCCGCAAAGAAGTTATTAAGGGATGAATAATCCCTCAATATAAATATCTCTCGCTTATTTAAA	–	0.778	–
ACAGACGAAGGAGCCGCAAAGAAGTTATTAAGGGATGAATAATCCCTCAATATAAATATGACTCACTTATTTAAA	–	1	–
ACAGACGAAGGAGCCGCAAAGAAGTTATTAAGGGATGAATAATCCCTCAATATAAATATGTCTCACTTATTTAAA	–	0.713	–
ACAGACGAAGGAGCCGCAAAGAAGTTATTAAGGGATGAATAATCCCTCAATATAAATATTTCTCACTTATTTAAA	1	0.864	–
ACAGACGAAGGAGCCGCAAAGAAGTTATTAAGGGATGAATAATCCCTCAATATAAATCTCTCTCACTTATTTAAA	0.652	0.679	0.701
ACAGACGAAGGAGCCGCAAAGAAGTTATTAAGGGATGAATAATCCCTCAATATAAATGACTCTCACTTATTTAAA	–	1.3	–
ACAGACGAAGGAGCCGCAAAGAAGTTATTAAGGGATGAATAATCCCTCAATATAAATGTCTCTCACTTATTTAAA	0.498	0.636	0.546
ACAGACGAAGGAGCCGCAAAGAAGTTATTAAGGGATGAATAATCCCTCAATATAAATGTTTCTCACTTATTTAAA	–	0.369	–
ACAGACGAAGGAGCCGCAAAGAAGTTATTAAGGGATGAATAATCCCTCAATATAAATTACTCTCACTTATTTAAA	–	0.951	–
ACAGACGAAGGAGCCGCAAAGAAGTTATTAAGGGATGAATAATCCCTCAATATAAATTATCTCTCACTTATTTAA	–	0.975	–
ACAGACGAAGGAGCCGCAAAGAAGTTATTAAGGGATGAATAATCCCTCAATATAAATTTCTCTCACTTATTTAAA	0.72	0.761	0.391
ACAGACGAAGGAGCCGCAAAGAAGTTATTAAGGGATGAATAATCCCTCAATATAAATTTGTCTCACTTATTTAAA	0.98	–	–

Sequence	cleaved RNA product abundance [1]	cleaved RNA product abundance [2]	cleaved RNA product abundance [3]
ACAGACGAAGGAGCCGCAAAGAAGTTATTAAGGGATGAATAATCCCTCAATATAACCATCTCTCACTTATTTAAA	–	0.296	–
ACAGACGAAGGAGCCGCAAAGAAGTTATTAAGGGATGAATAATCCCTCAATATAACTATCTCTCACTTATTTAAA	0.201	0.146	0.267
ACAGACGAAGGAGCCGCAAAGAAGTTATTAAGGGATGAATAATCCCTCAATATAAGTATCTCTCACTTATTTAAA	0.397	0.42	0.462
ACAGACGAAGGAGCCGCAAAGAAGTTATTAAGGGATGAATAATCCCTCAATATAATGATCTCTCACTTATTTAAA	–	0.348	–
ACAGACGAAGGAGCCGCAAAGAAGTTATTAAGGGATGAATAATCCCTCAATATAATTACCTCTCACTTATTTAAA	–	0.435	–
ACAGACGAAGGAGCCGCAAAGAAGTTATTAAGGGATGAATAATCCCTCAATATAATTATCTCTCACTTATTTAAA	0.673	0.491	0.338
ACAGACGAAGGAGCCGCAAAGAAGTTATTAAGGGATGAATAATCCCTCAATATACATATCTCTCACTTATTTAAA	0.933	0.838	0.498
ACAGACGAAGGAGCCGCAAAGAAGTTATTAAGGGATGAATAATCCCTCAATATACATCTCTCTCACTTATTTAAA	–	0.206	–
ACAGACGAAGGAGCCGCAAAGAAGTTATTAAGGGATGAATAATCCCTCAATATAGATATCTCTCACTTATTTAAA	0.711	0.683	–
ACAGACGAAGGAGCCGCAAAGAAGTTATTAAGGGATGAATAATCCCTCAATATATAAATCTCTCACTTATTTAAA	–	1.13	–
ACAGACGAAGGAGCCGCAAAGAAGTTATTAAGGGATGAATAATCCCTCAATATATAGATCTCTCACTTATTTAAA	–	0.77	–
ACAGACGAAGGAGCCGCAAAGAAGTTATTAAGGGATGAATAATCCCTCAATATATATAACTCTCACTTATTTAAA	0.679	0.429	–
ACAGACGAAGGAGCCGCAAAGAAGTTATTAAGGGATGAATAATCCCTCAATATATATATCTCTCACTTATTTAAA	0.874	0.885	0.832
ACAGACGAAGGAGCCGCAAAGAAGTTATTAAGGGATGAATAATCCCTCAATATATATATTTCTCACTTATTTAAA	–	0.817	–
ACAGACGAAGGAGCCGCAAAGAAGTTATTAAGGGATGAATAATCCCTCAATATATATTTCTCTCACTTATTTAAA	–	0.561	–
ACAGACGAAGGAGCCGCAAAGAAGTTATTAAGGGATGAATAATCCCTCAATATCAATATCTCTCACTTATTTAAA	0.126	0.103	0.216
ACAGACGAAGGAGCCGCAAAGAAGTTATTAAGGGATGAATAATCCCTCAATATGAATATCTCTCACTTATTTAAA	0.153	0.102	0.0685
ACAGACGAAGGAGCCGCAAAGAAGTTATTAAGGGATGAATAATCCCTCAATATTAATATCTCTCACTTATTTAAA	0.169	0.113	0.249
ACAGACGAAGGAGCCGCAAAGAAGTTATTAAGGGATGAATAATCCCTCAATCTAAATATCTCTCACTTATTTAAA	0.126	0.138	0.193
ACAGACGAAGGAGCCGCAAAGAAGTTATTAAGGGATGAATAATCCCTCAATGTAAATATCTCTCACTTATTTAAA	0.139	0.13	0.154
ACAGACGAAGGAGCCGCAAAGAAGTTATTAAGGGATGAATAATCCCTCAATTTAAATATCTCTCACTTATTTAAA	0.182	0.218	0.195
ACAGACGAAGGAGCCGCAAAGAAGTTATTAAGGGATGAATAATCCCTCAATTTAAATGTCTCTCACTTATTTAAA	–	0.048	–
ACAGACGAAGGAGCCGCAAAGAAGTTATTAAGGGATGAATAATCCCTCAATTTATATATCTCTCACTTATTTAAA	–	0.2	–
ACAGACGAAGGAGCCGCAAAGAAGTTATTAAGGGATGAATAATCCCTCACTATAAATAACTCTCACTTATTTAAA	0.175	0.285	–
ACAGACGAAGGAGCCGCAAAGAAGTTATTAAGGGATGAATAATCCCTCACTATAAATATCTCTCACTTATTTAAA	0.215	0.277	0.208
ACAGACGAAGGAGCCGCAAAGAAGTTATTAAGGGATGAATAATCCCTCACTATATATATCTCTCACTTATTTAAA	–	0.319	–
ACAGACGAAGGAGCCGCAAAGAAGTTATTAAGGGATGAATAATCCCTCAGAATAAATATCTCTCACTTATTTAAA	–	0.197	–

Reference: the supplement of paper PMC11780869
